Results as given in patent publication US20210388102A1 (IMMUNOGEN, published 2021).

T1: human ADAM9 (huADAM9) on cells (human, UniProt Q13443 206-819)
T1 construct: The pro-domain is said to be cleaved (Arg-205/Ala-206) in the mature protein; also called Cho-K/huADAM9; Cho-K/hu ADAM9.2
T1 sequence: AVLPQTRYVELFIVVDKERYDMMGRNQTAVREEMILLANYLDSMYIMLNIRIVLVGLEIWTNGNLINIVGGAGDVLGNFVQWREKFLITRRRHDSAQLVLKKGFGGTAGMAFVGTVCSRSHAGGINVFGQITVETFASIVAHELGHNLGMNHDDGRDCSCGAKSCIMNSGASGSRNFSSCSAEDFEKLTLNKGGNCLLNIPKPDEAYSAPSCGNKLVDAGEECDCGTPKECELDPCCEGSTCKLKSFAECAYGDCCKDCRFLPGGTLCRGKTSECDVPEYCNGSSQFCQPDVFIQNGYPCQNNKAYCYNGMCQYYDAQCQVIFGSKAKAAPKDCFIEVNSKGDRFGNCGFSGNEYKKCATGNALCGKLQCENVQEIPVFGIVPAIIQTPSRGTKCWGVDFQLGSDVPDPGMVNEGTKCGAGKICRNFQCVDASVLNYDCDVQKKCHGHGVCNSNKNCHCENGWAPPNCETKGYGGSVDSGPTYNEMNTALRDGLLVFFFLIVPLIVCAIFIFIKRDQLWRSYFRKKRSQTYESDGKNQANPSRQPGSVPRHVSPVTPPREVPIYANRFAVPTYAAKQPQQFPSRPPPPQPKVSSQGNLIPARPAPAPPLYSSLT

T2: His-tagged soluble human ADAM9 (shADAM9-His) (human, UniProt Q13443 206-697)
T2 construct: Contains an extracellular portion of human ADAM9; also called huADAM9-His; His peptide-tagged soluble huADAM9
T2 sequence: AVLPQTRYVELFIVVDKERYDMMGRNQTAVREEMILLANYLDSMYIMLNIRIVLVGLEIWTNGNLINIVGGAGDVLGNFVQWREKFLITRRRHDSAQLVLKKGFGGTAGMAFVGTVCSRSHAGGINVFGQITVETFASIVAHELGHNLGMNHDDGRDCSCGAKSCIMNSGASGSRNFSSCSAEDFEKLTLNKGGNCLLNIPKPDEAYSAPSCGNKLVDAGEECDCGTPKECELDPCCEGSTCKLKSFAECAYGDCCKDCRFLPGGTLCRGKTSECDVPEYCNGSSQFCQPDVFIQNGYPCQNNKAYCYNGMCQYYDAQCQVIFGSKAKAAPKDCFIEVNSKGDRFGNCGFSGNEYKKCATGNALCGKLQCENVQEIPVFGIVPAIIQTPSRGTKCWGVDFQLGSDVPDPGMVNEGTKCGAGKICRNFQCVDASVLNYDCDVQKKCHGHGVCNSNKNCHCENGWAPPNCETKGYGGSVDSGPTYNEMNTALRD

T3: cynomolgus monkey ADAM9 (cynoADAM9) on cells (cynomolgus monkey, UniProt Q13443 206-819 (human entry))
T3 construct: also called Cho-K/cynoADAM9 clone 2; Cho-K/cynoADAM9 clone #16
T3 chain: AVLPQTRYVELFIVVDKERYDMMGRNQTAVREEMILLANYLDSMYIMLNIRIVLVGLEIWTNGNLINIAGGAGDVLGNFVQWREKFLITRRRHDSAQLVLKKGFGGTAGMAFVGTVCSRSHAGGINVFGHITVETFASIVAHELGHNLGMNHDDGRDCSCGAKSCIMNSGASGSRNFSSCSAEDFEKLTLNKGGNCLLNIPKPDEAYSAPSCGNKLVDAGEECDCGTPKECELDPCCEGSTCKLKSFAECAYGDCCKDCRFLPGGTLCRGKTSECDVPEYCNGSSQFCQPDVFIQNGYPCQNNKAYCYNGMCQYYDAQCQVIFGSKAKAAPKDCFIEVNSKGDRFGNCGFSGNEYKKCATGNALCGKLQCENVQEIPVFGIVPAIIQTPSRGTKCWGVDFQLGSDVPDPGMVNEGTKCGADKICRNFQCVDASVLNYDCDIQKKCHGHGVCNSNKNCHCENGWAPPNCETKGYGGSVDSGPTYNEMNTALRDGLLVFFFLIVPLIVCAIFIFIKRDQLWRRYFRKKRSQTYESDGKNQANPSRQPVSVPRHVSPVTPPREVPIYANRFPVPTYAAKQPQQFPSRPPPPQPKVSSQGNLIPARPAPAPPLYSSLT


How the values were obtained:
cyno FcRn = target: T4, cyno FcRn (cynomolgus monkey, UniProt Q8SPV9 24-297; Q8SPW0 21-119, limits assumed); experiment: FcRn binding, method not described
T4 construct: source and construct are not described
T4 sequence (Q8SPV9 24-297 limits assumed, chain 1 of 2): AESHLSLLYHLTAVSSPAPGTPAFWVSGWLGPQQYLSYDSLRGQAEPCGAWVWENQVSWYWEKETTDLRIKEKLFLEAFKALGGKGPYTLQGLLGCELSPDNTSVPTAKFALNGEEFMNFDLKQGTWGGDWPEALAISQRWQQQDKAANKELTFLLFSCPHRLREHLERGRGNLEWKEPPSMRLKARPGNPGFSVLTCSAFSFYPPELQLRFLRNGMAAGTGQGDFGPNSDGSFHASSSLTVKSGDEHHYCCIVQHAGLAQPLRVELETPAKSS
T4 sequence (Q8SPW0 21-119 limits assumed, chain 2 of 2): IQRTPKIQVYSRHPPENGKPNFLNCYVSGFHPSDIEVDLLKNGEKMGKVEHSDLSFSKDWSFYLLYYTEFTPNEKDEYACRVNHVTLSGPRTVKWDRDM

huFcRn [1] = target: T5, huFcRn (human, UniProt P55899 24-297; P61769 21-119, limits assumed); experiment: SPR at pH 6.0: 250 nM and 1000 nM huFcRn passed over captured antibody
T5 construct: source and construct are not described; also called human FcRn
T5 sequence (P55899 24-297 limits assumed, chain 1 of 2): as the sequence (Q8SPV9 24-297 limits assumed, chain 1 of 2) above, with D39N, Q44E, S99G, G189S, N190S, M217L, T269S counted along it
T5 sequence (P61769 21-119 limits assumed, chain 2 of 2): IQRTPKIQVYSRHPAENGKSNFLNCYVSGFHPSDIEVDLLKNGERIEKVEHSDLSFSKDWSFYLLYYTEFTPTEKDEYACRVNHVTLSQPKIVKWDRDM

huFcRn [2] = target: T5, huFcRn; experiment: SPR at pH 6.0: 25 nM and 100 nM antibody passed over immobilized FcRn (species of the FcRn not named in the legend); bivalent analyte
[3] = target: T1, human ADAM9 (huADAM9) on cells; experiment: FACS, 300-19 cells expressing human ADAM9
[4] = target: T2, His-tagged soluble human ADAM9 …; experiment: SPR (BIACORE), antibody captured, huADAM9-His in flow
[5] = target: T2, His-tagged soluble human ADAM9 …; experiment: SPR (BIACORE), antibody captured on anti-human Fc, shADAM9-His 6.25-100 nM, 1:1 Langmuir
[6] = target: T3, cynomolgus monkey ADAM9 (cynoADAM9) on …; experiment: FACS, 300-19 cells expressing cynomolgus ADAM9; FACS, 300-19 cells expressing cynoADAM9, dilution series, 4° C.
[7] = target: T3, cynomolgus monkey ADAM9 (cynoADAM9) on …; experiment: FACS, EC50 on 300-19 cynoADAM9 cells over EC50 on 300-19 huADAM9 cells; Unitless ratio of cyno EC50 to human EC50 by FACS on 300-19 cells

Binder | binding result (cyno FcRn) | Kd (huFcRn [1]) | Kd (huFcRn [2]) | EC50 [3] | Kd [4] | koff [4] | kon [4] | Kd [5] | EC50 [6] | cyno/human (ratio of EC50) [7]
hMAB-A(2I.2)-YTE (antibody, human IgG1, kappa, Last residue X is lysine or absent; also called hMAB-A(2I.2) with the YTE mutation (M252Y, S254T, T256E)) heavy: EVQLVESGGGLVKPGGSLRLSCAASGFTFSSYWMHWVRQAPGKGLEWVGEIIPIFGHTNYNEKFKSRFTISLDNSKNTLYLQMGSLRAEDTAVYYCARGGYYYYPRQGFLDYWGQGTTVTVSSASTKGPSVFPLAPSSKSTSGGTAALGCLVKDYFPEPVTVSWNSGALTSGVHTFPAVLQSSGLYSLSSVVTVPSSSLGTQTYICNVNHKPSNTKVDKRVEPKSCDKTHTCPPCPAPELLGGPSVFLFPPKPKDTLYITREPEVTCVVVDVSHEDPEVKFNWYVDGVEVHNAKTKPREEQYNSTYRVVSVLTVLHQDWLNGKEYKCKVSNKALPAPIEKTISKAKGQPREPQVYTLPPSREEMTKNQVSLTCLVKGFYPSDIAVEWESNGQPENNYKTTPPVLDSDGSFFLYSKLTVDKSRWQQGNVFSCSVMHEALHNHYTQKSLSLSPGK light: DIVMTQSPDSLAVSLGERATISCKASQSVDYSGDSYMNWYQQKPGQPPKLLIYAASDLESGIPARFSGSGSGTDFTLTISSLEPEDFATYYCQQSHEDPFTFGQGTKLEIKRTVAAPSVFIFPPSDEQLKSGTASVVCLLNNFYPREAKVQWKVDNALQSGNSQESVTEQDSKDSTYSLSSTLTLSKADYEKHKVYACEVTHQGLSSPVTKSFNRGEC | binds | 730 nM | 7.2 nM | – | – | – | – | – | – | –
hMAB-A (2.2) (antibody, human IgG1, kappa, V domains shown, IgG1 kappa; also called huMAB-A(2.2); parental hMAB-A (2.2)) VH: EVQLVESGGGLVKPGGSLRLSCAASGFTFSSYWMHWVRQAPGKGLEWVGEIIPIFGHTNYNEKFKSRFTISLDNSKNTLYLQMGSLRAEDTAVYYCARGGYYYYGSRDYFDYWGQGTTVTVSS VL: DIVMTQSPDSLAVSLGERATISCKASQSVDYSGDSYMNWYQQKPGQPPKLLIYAASDLESGIPARFSGSGSGTDFTLTISSLEPEDFATYYCQQSHEDPFTFGQGTKLEIKR | – | – | – | 0.69 nM | 0.6 nM | 0.00055 s⁻¹ | 900000 M⁻¹ s⁻¹ | 1.4 nM | 32.7 nM | 47
